The values that follow come from patent US20040063627A1 (BROWN UNIVERSITY RESEARCH FOUNDATION, published 2004).

The target in this assay is T1, QE-Bgn (bacterially expressed recombinant human biglycan core) (human, UniProt P21810 38-368).
T1 construct: Produced in E. coli M15[pREP4]; contains no chondroitin sulfate side chains; tested as lysate of induced bacteria on a blot; also called QE-BIG; bacterially-expressed biglycan
T1 sequence: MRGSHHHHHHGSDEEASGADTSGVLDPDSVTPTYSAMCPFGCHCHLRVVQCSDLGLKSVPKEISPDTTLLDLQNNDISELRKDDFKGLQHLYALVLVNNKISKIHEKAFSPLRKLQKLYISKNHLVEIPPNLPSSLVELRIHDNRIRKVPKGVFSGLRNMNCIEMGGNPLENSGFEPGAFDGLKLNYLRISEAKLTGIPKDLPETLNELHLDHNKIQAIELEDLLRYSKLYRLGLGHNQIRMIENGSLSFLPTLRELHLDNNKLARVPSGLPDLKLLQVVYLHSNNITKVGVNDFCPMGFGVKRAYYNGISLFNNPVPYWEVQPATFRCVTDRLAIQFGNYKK
Briefly: dystroglycan blot overlay on lysate of induced bacteria (FIG. 7).

B1: α-dystroglycan (dystroglycan as named in the overlay assays; fragment not named at the place) (receptor, human, UniProt Q14118 345-653, looked up)
chain: PAIAPPTETMAPPVRDPVPGKPTVTIRTRGAIIQTPTLGPIQPTRVSEAGTTVPGQIRPTMTIPGYVEPTAVATPPTTTTKKPRVSTPKPATPSTDSTTTTTRRPTKKPRTPRPVPRVTTKVSITRLETASPPTRIRTTTSGVPRGGEPNQRPELKNHIDRVDAWVGTYFEVKIPSDTFYDHEDTTTDKLKLTLKLREQQLVGEKSWVQFNSNSQLMYGLPDSSHVGKHEYFMHATDKGGLSAVDAFEIHVHRRPQGDRAPARFKAKFVGDPALVLNDIHKKIALVKKLAFAFGDRNCSTITLQNITRG
notes: also called alpha-dystroglycan
For B1, the binding result is listed as “no binding”.
